# According to US9896489B2, “Family of synthetic polynucleotide-binding peptides and uses thereof” (Eastern Virginia Medical School, priority 2012, dated 2018):
# B1: novel synthetic Purα agonist peptide, 89 aa, SEQ ID NO: 1, with cell transport sequence YARAKRRQARRQIR (peptide)
# chain: LASTFVTRDNKRYFMDLKENQRGRFMRVSQVGTRGYRNSLTVSYSVAWLEFRTHLCKLIDEYAKLQYARAKRRQARRQIRQQQQQQQEE
# How the values were obtained:
# KG-1C cells = type: cell-based
# SCLC cells = assay: Growth of SCLC cell lines treated with TZIP peptide; type: cell-based
# Procedure: (§1) The peptide was tested against SCLC cells in culture. The cell lines included H82, H146, and controls. The H82 cell line has amplified c-MYC genes and H146 has increased levels of expression of c-MYC. The controls were normal epithelial cells and HeLa cells (a cervical cancer cell line with no known changes in c-MYC).
# U-87 MG cells = type: cell-based
# [1] = tested on: human prostate cancer cell lines; assay: Growth of prostate cancer cells treated with TZIP peptide; type: cell-based
# [2] = tested on: ALS ssDNA (GGGGCC hexanucleotide repeat expanded at C9ORF72); assay: Electrophoretic mobility shift assay with ALS ssDNA; type: binding
# Procedure: Infrared oligonucleotides representing a GGGGCC hexanucleotide repeat expanded at C9ORF72 in ALS patients were custom ordered and are referred to as ALS ssDNA. 4% polyacrylamide gel electrophoresis was performed using IR-labeled oligonucleotides and imaged using the Li-Cor Odyssey IR imaging instrumentation and software.
# Electrophoretic Mobility Shift Assay-Various combinations of Purα, Purβ, TZIP, and IR-labeled oligonucleotides were prepared in the 5× Johnson binding buffer (Bergemann, Andrew D and Johnson, Edward M (1992), The HeLa Pur Factor Binds Single-Stranded DNA at a Specific Element Conserved in Gene Flanking Regions and Origins of DNA Replication. Molecular and Cellular Biology, vol 12:3 (1257-1265), incorporated by reference herein in its entirety), adjusted to 5 mM DTT, 5 mM EDTA, and 0.5% Tween 20. 4% polyacrylamide gel electrophoresis was performed on samples and imaged with the Li-Cor Odyssey instrumentation and software. Densitometry was performed on the DNA concentration course experiments using the Li-Cor Odyssey software.
# A Kd value obtained for Purβ was complex and not readily interpretable.
# H82 SCLC cells = assay: H82 SCLC cell growth, hemocytometer cell counts; type: cell-based; conditions: 10^−12 M peptide
# Procedure: as §1
# H82 SCLC cells were grown in suspension in small cell culture wells in RPMI medium with 10% fetal bovine serum. At time 0, the TZIP peptide was added to the medium at a final concentration of 10^−12 M. Control cells received no peptide. The TZIP peptide was added as a stock solution of 200 μg in 200 μL of deionized water.
# HeLa cells = assay: HeLa cell growth, hemocytometer cell counts; type: cell-based; conditions: treated as described for H82 cells
# Procedure: This was expected based on the lack of changes in c-MYC in HeLa cell lines. HeLa cells were grown in suspension and either treated or untreated with the TZIP peptide as described above for the H82 cells. Points were taken at different times post treatment, and cells were counted using a hemocytometer. […] This difference was expected, as HeLa cells differ from SCLC cells in many aspects of tumor suppressor gene products and presence of oncogenes.
# H82 cells = H82 cells treated with TZIP peptide as for cell counts
# Procedure: Referring to FIG. 7, a subset of H82 cells was treated with the TZIP peptide and the dye trypan blue, which is excluded from live cells. The H82 cells were otherwise treated as previously described and H82 cells used as a control were untreated. The percentages of living cells are represented by solid lines, and the percentages of dead cells are represented by dotted lines.
# [3] = tested on: FXS ssDNA (G-rich trinucleotide DNA repeats at FMR1); assay: Electrophoretic mobility shift assay with FXS ssDNA; type: binding
# Excerpt: A GE Microspin GST purification module was used to purify GST-tagged Purα and Purβ from bacterial lysate. Polyacrylamide gel electrophoresis with SDS-Page gels and molecular markers were used to verify that GST, Purα, and Purβ were expressed and purified. Expressed proteins were detected using antibodies against Purα and Purβ, including monoclonal mouse anti-Pur antibody developed in Johnson laboratory (clone 10B12) and polyclonal antibody against Purβ (Abcam). Polyacrylamide gel electrophoresis with TBE buffer was used for gel-mobility shift assay. Infrared-labeled oligonucleotides representing G-rich trinucleotide DNA repeats at FMR1 in patients with Fragile X Syndrome (FXS) were custom ordered and are referred to herein as FXS ssDNA. Infrared-labeled oligonucleotide substrates in agarose and polyacrylamide gels were detected through the use of the Odyssey (LICOR) instrumentation and software. […] When Purα and Purβ are combined (FIG. 17), by increasing the amount of Purβ, the DNA is shifted more to the top of the gel. Therefore, there is more binding of the proteins to the DNA. […] In FIG. 19, TZIP enhances the mobility shift of ssDNA FXS in the presence of Purα.
# [4] = tested on: normal human epithelial cells; assay: Growth of normal epithelial cells treated with TZIP peptide; type: cell-based
# [5] = tested on: Tat transactivation of the HIV-1 LTR; assay: Tat transactivation of HIV-1 LTR-luciferase in U-87 MG cells; type: cell-based; conditions: peptide added exogenously to the medium; clade B LTR and Tat
# Procedure: The TZIP peptide's effect on Tat's ability to transactivate the HIV-1 LTR was tested. In this experiment, U-87 MG cells were transfected with the clade B HIV-1 LTR coupled to luciferase. They were also transfected to express Tat, clade B. In the absence of Tat transfection there is no luciferase activity. […] The results in FIG. 9B document inhibition of the HIV-1 LTR at low concentrations of peptide, levels which would be acceptable in humans.
molecule,measurement,setting,value
B1,effects on growth kinetics or morphology,KG-1C cells,did not display any effects on growth kinetics or morphology
same,"inhibitory effect on growth, compared with other cell types",SCLC cells,consistently showed the greatest inhibitory effects
same,effects on growth kinetics or morphology,U-87 MG cells,did not display any effects on growth kinetics or morphology
same,growth inhibition,[1],effective at inhibiting growth of prostate cancer cells
same,binding of ALS repeat (qualitative),[2]; DNA concentration courses,strongly bind the ALS repeat in low concentrations
same,effect of TZIP on Purα binding to ALS ssDNA,[2]; Purα and TZIP mixed,alter the binding activity of Purα
same,effect of TZIP on Purβ binding to ALS hexanucleotide repeat,[2]; Purβ and TZIP mixed,greatly stimulates binding of Purβ
same,Kd,[2]; densitometry of DNA concentration course,0.55 nM
same,concentration at which TZIP functions cooperatively with Purα to enhance binding to the GGGGCC repeat,[2]; with Purα,less than 1 μM
same,growth of treated cells (cell counts),H82 SCLC cells; after three days,no further growth of the treated cancer cells was evident
same,growth inhibition (cell counts),H82 SCLC cells; one day post treatment,inhibitory effects of the peptide were evident
same,effect on cell growth,HeLa cells,little effect on the growth of HeLa cells
same,"cell killing (living/dead cells, trypan blue)",H82 cells,killed TZIP-treated H82 cells
same,binding / mobility shift of ssDNA FXS (qualitative),[3],tightly binds the FXS trinucleotide expanded repeat
same,order of binding ssDNA FXS,[3],TZIP>Purα>Purβ
same,effect of TZIP on Purα binding to ssDNA FXS,[3]; in the presence of Purα,greatly stimulates Purα binding
same,effect of treatment on normal cells,[4],did not show any significant effects
same,inhibition of Tat transactivation (luciferase),[5],transactivation is inhibited over a broad range of low concentrations
